# Data published in patent US20250210128A1, “COMPUTER-IMPLEMENTED DESIGN OF PEPTIDE:RECEPTOR SIGNALING COMPLEXES FOR ENHANCED CHEMOTAXIS” (Ecole Polytechnique Federale de Lausanne (EPFL), priority 2022, published 2025).
# Where a chain is given by its changes, count along the chain named. In names and notes the source's numbering stands.
# B1: L41A CXCR4: CXCR4 point mutant L41A (protein)
# chain: MEGISIYTSDNYTEEMGSGDYDSMKEPCFREENANFNKIFAPTIYSIIFLTGIVGNGLVILVMGYQKKLRSMTDKYRLHLSVADLLFVITLPFWAVDAVANWYFGNFLCKAVHVIYTVNLYSSVLILAFISLDRYLAIVHATNSQRPRKLLAEKVVYVGVWIPALLLTIPDFIFANVSEADDRYICDRFYPNDLWVVVFQFQHIMVGLILPGIVILSCYCIIISKLSHSKGHQKRKALKTTVILILAFFACWLPYYIGISIDSFILLEIIKQGCEFENTVHKWISITEALAFFHCCLNPILYAFLGAKFKTSAQHALTSVSRGSSLKILSKGKRGGHSSVSTESESSSFHSS
# B2: Cdes2: second-generation combinatorial design CXCR4 variant combining the 2 designed binding hotspot motifs (protein)
# chain: B1 chain with N37A, A41L, Y45F, S178F, D181Q, I185V, S285M
# modifications: Cdes2
# B3: Cdes1: first-generation combinatorial design CXCR4 receptor variant with binding hotspot motif at TM1/7 interface (protein)
# chain: B1 chain with N37A, A41L, Y45F, S285M
# modifications: Cdes1
# B4: Ldes: CXCR4 variant assembled from activating point mutations on TM1, TM3 and ECL2 of the point mutant library (protein)
# chain: B1 chain with A41I, H113N, S178A
# modifications: Ldes
# B5: CLdes: CXCR4 variant combining the H113N mutation with the Cdes2 design (protein)
# chain: B1 chain with N37A, A41L, Y45F, H113N, S178F, D181Q, I185V, S285M
# modifications: CLdes
# notes: CXCR4 variant combining the H113N mutation with the Cdes2 design
# Columns and labels:
# CXCR4 [1] = molecular target: T1, CXCR4 (Homo sapiens, UniProt P61073, L41A); assay: Calcium mobilization assay in transfected HEK 293T cells; type: cell-based; conditions: peptide-induced, point mutation, FIG. 15A
# T1 construct: WT CXCR4 with an N-terminal 3×HA-tag, Gβ3-WT, and GNA15 sub-cloned into pcDNA3.1+ were obtained from the cDNA Resource Center; host or cells: HEK 293T
# Method: (§1) 40,000 HEK 293T cells were transiently transfected with 50 ng HA3-CXCR4, 10 ng GNA15 in pcDNA3.1+. To equalize receptor surface expression, 75 ng of HA3-CXCR4 for the Cdes2 Design variant. Cells were first seeded in 100 uL DMEM (Gibco, ref: 41965-039) 10% FBS in a black-walled, clear-bottom 96-well plate coated with poly-lysine (Sigma, P6407-5MG). Directly after cell loading, 50 uL of the mixture containing 0.5 μL Lipofectamine 2000 (Invitrogen, ref: 11668-019) and the DNA was added on top of the cells. The cells were then left to incubate at 37° C., 5% CO2, 95% relative humidity for 20 h, after which, media was refreshed with 150 uL DMEM+10% FBS. Cells were assayed 48 h post-transfection. Cells were washed with 200 μL FLIPR6 buffer (HBSS+20 mM HEPES, pH 7.4), then incubated at 37° C., 5% CO2, 95% relative humidity for 2 h in 200 μL dye buffer according to manufacturer's protocol. Just before the assay, 5× concentrated peptide solutions were prepared in FLIPR6 buffer in a V-bottom 96-well plate. After incubation, peptide solutions were added at a rate of 16 μL/s after 30 s and fluorescence changes were monitored for 90 s after addition using microplate reader FlexStation3 (Molecular Devices). The maximum response after correction by the mock-transfected condition was averaged from three replicates. […]
# CXCR4 [2] = assay: Gαi dissociation BRET (Gi activation) in transfected HEK 293T cells; type: cell-based, human; conditions: for enhanced potency in G-coupling (Gi): designed receptor vs WT CXCR4 scaffold, against WT CXCL12 peptide
# Method: (§2) 40,000 HEK 293T cells were transiently transfected with HA3-CXCR4, Gαi1-91-Rluc8, Gβ3-WT and Gγ9-GFP2 in pcDNA3.1+ at a ratio of 10:1:10:5 respectively. Cells were first seeded in 100 μL DMEM 10% FBS in a poly-lysine coated, white-walled, white-bottom 96-well plate. Directly after cell loading, 50 μL of the mixture containing Lipofectamine 2000 and the DNA was added on top of the cells. The cells were then left to incubate at 37° C., 5% CO2, 95% relative humidity for 20 h, after which, 150 μL media was refreshed. Cells were assayed 48 h post-transfection. Cells were washed with 150 μL PBS, then 40 μL BRET buffer (HBSS, 0.2% Glucose) was added to each well. Coelenterazine 400a was first added at a final concentration of 2.5 μM and BRET ratios were measured once using Mithras^2 LB 943 plate reader. After the first measurement, […] agonist solution was added to each well and BRET ratios were measured for another 30 min using Mithras^2 LB 943 plate reader. Mock-transfected controls were subtracted from the data. Maximum values were then plotted against selected concentrations and fitted to a sigmoidal curve. (n=3, SD plotted)
# CXCR4 [3] = assay: Calcium mobilization assay in transfected HEK 293T cells; type: cell-based, human; conditions: designed receptor vs WT CXCR4, CXCL12-derived peptide, HEK cells
# Method: as §1
# CXCR4 [4] = molecular target: T2, CXCR4 (Homo sapiens, UniProt P61073, N37A/S285M/Y45F); assay: Gαi dissociation BRET (Gi activation) in transfected HEK 293T cells; type: cell-based; conditions: HEK cells; cell based assays reporting Gi activation and Ca2+ mobilization
# T2 construct: WT CXCR4 with an N-terminal 3×HA-tag, Gβ3-WT, and GNA15 sub-cloned into pcDNA3.1+ were obtained from the cDNA Resource Center; host or cells: HEK 293T
# T2 sequence (P61073 whole entry N37A/Y45F/S285M): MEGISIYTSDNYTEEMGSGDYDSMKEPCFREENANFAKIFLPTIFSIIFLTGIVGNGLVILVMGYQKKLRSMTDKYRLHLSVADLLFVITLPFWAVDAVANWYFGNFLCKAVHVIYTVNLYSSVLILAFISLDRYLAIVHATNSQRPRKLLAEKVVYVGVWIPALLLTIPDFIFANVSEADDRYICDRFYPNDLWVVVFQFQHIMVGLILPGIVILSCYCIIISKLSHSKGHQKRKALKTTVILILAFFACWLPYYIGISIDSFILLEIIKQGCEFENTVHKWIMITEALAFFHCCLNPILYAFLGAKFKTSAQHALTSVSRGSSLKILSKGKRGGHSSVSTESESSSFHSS
# Method: as §2
molecule,measurement,setting,value
B1,calcium release,CXCR4 [1],Enhanced
B2,enhanced potency in G-coupling (Gi),CXCR4 [2],3.2 fold over WT
same,enhanced potency in calcium mobilization,CXCR4 [3],3.1 fold over WT
B3,sensitivity to CXCL12,CXCR4 [4],enhanced sensitivity
B4,enhanced potency in G-coupling (Gi),CXCR4 [2],~11 fold over WT
same,higher Gi efficacy,"CXCR4 [2]; designed receptor vs starting CXCR4 WT scaffold, WT CXCL12 peptide",120%
B5,enhanced potency in G-coupling (Gi),CXCR4 [2],more than 9 fold over WT
